The values below come from paper PMC12551710, “The hook-like adaptor and cargo-binding (HAC) domain in the kinesin-2 tail enables adaptor assembly and cargo recognition” (Science Advances, 2025).

Sequences and labels used below:
T1: KIF3B C-terminal region (BCT), residues 475 to 747 (Mus musculus, UniProt Q61771 475-747)
T1 construct: KIF3B, Mus musculus, NCBI NP_032470.3, C-terminal region residues 475 to 747 (BCT), without expression tags; residues 580 to 675 are resolved; also called KIF3B tail; source: E. coli BL21 (DE3), coexpressed with the KIF3A tail from pETDuet-1, purified within the reconstituted complex
T1 sequence (looked up): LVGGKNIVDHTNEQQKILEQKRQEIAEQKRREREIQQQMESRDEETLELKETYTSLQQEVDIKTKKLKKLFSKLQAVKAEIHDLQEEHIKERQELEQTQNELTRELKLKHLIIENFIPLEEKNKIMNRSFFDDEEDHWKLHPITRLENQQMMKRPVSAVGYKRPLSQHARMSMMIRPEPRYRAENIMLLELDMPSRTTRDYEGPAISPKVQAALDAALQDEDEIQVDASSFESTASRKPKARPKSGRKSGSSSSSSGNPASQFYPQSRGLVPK

B1: KIF3A C-terminal region (ACT), residues 481 to 701 (domain or fragment, Mus musculus, UniProt P28741 481-701, looked up)
chain: VIVGGVDLLAKAEEQEKLLEESNMELEERRRRAEQLRKELEEKEQERLDIEEKYTSLQEEAQGKTKKLKKVWTMLMAAKSEMADLQQEHQREIEGLLENIRQLSRELRLQMLIIDNFIPQDYQEMIENYVHWNEDIGEWQLKCVAYTGNNMRKQTPVPDKKERDPFEVDLSHVYLAYTEESLRQSLMKLERPRTSKGKARPKMGRRKRSAKPETVIDSLLQ
notes: KIF3A, Mus musculus, NCBI NP_032469.2, C-terminal region residues 481 to 701 (ACT); also called KIF3A tail; source: E. coli BL21 (DE3), coexpressed with the KIF3B tail from pETDuet-1, purified within the reconstituted complex
B2: ARM domain of APC (APCARM), residues 338 to 1010 (domain or fragment, Mus musculus, UniProt Q61315 338-1010, looked up)
chain: SQDSCISMRQSGCLPLLIQLLHGNDKDSVLLGNSRGSKEARARASAALHNIIHSQPDDKRGRREIRVLHLLEQIRAYCETCWEWQEAHEQGMDQDKNPMPAPVEHQICPAVCVLMKLSFDEEHRHAMNELGGLQAIAELLQVDCEMYGLTNDHYSVTLRRYAGMALTNLTFGDVANKATLCSMKGCMRALVAQLKSESEDLQQVIASVLRNLSWRADVNSKKTLREVGSVKALMECALEVKKESTLKSVLSALWNLSAHCTENKADICAVDGALAFLVGTLTYRSQTNTLAIIESGGGILRNVSSLIATNEDHRQILRENNCLQTLLQHLKSHSLTIVSNACGTLWNLSARNPKDQEALWDMGAVSMLKNLIHSKHKMIAMGSAAALRNLMANRPAKYKDANIMSPGSSLPSLHVRKQKALEAELDAQHLSETFDNIDNLSPKASHRSKQRHKQNLYGDYAFDANRHDDSRSDNFNTGNMTVLSPYLNTTVLPSSSSSRGSLDSSRSEKDRSLERERGIGLSAYHPTTENAGTSSKRGLQITTTAAQIAKVMEEVSAIHTSQDDRSSASTTEFHCVADDRSAARRSSASHTHSNTYNFTKSENSNRTCSMPYAKVEYKRSSNDSLNSVTSSDGYGKRGQMKPSVESYSEDDESKFCSYGQYPADLAHKIHSAN
notes: adenomatous polyposis coli (APC), Mus musculus, NCBI AAB59632.1, ARM domain residues 338 to 1010, without expression tags; also called APC ARM domain; source: E. coli BL21 (DE3), purified; E. coli lysate in the pull-down

Holding throughout (settings): both partners purified
Test [1] concerns the target T1, KIF3B C-terminal region (BCT), residues …. As to the kind of experiment: cryo-EM structure; ABK complex (KIF3A 481-701, KIF3B 475-747, KAP3 1-693), 0.75 mg/ml, single-particle, two maps.
For test [2], the target named is B2. As to the kind of experiment: cryo-EM structure; ABK-APCARM complex, 0.75 mg/ml and 0.375 mg/ml (tilted stage 30° and 40°), single-particle, merged datasets.
Test [3] has as its target T2, KIF3A/B/KAP3 cargo-binding domain complex (ABK), wild type (Mus musculus, UniProt P28741 481-701; Q61771 475-747; P70188-1 1-693).
T2 construct: KIF3A, Mus musculus, NCBI NP_032469.2, C-terminal region residues 481 to 701 (ACT); KIF3B, Mus musculus, NCBI NP_032470.3, C-terminal region residues 475 to 747 (BCT); KAP3A, Mus musculus, NCBI NP_001292572.1, residues 1 to 693; The His tag is named on the complexes of the SPR experiment; also called ABK (WT); KIF3A/B tail/KAP3 complex; source: E. coli BL21 (DE3), reconstituted and purified (size …)
As to the kind of experiment: SPR; Biacore T200; APCARM immobilised on CM5 chip at around 200 RU by amine coupling; kinesin-2 complexes injected at 6.25 to 50 nM, 30 μl/min, 15°C; 20 mM Hepes pH 8.0, 150 mM NaCl, 1 mM dithiothreitol, 0.005% Tween 20; KD from Scatchard plot analysis. In general terms: In SPR one partner is held on a chip, and binding of the other changes the refractive index at the surface.

T2 sequence (P70188 1-693, one chain of several): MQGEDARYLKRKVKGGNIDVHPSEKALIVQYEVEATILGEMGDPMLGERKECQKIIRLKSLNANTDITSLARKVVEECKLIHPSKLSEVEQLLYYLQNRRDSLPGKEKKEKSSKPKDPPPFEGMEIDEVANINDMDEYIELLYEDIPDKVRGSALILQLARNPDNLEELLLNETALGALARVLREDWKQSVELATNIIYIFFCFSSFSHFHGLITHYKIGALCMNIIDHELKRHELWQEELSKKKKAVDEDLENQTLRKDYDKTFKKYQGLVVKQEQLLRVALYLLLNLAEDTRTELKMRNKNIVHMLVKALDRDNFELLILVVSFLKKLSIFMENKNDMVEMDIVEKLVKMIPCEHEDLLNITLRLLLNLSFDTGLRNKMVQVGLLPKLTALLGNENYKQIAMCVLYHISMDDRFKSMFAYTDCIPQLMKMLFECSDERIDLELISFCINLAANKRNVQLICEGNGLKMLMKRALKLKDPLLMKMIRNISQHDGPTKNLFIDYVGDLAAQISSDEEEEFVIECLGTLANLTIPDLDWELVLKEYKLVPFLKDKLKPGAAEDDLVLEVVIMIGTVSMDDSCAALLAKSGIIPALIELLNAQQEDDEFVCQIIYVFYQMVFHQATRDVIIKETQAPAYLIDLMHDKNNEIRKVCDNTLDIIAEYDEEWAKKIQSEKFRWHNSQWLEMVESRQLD

On to B1, for which the binding result in test [1] and in test [2] was “binds” each time. The term Kd denotes the equilibrium constant for the complex coming apart. B2 came in with a Kd in test [3] of 34.7 ± 0.6 nM.
